From US12459997B2, “Compounds and methods targeting interleukin-19” (Eli Lilly and Company, priority 2018, dated 2025)
Where a chain is given by its changes, count along the chain named.

T1: human IL-19 / human IL-20R beta Fc-fusion protein (Homo sapiens, UniProt Q9UHD0)
T1 sequence (Q9UHD0 25-177): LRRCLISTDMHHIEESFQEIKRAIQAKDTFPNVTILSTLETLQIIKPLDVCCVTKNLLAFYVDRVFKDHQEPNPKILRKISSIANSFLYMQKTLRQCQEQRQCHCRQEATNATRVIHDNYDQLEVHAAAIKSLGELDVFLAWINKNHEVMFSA

T2: recombinant human IL-19 (Homo sapiens, UniProt Q9UHD0)
T2 sequence (Q9UHD0 25-177): T1 sequence (Q9UHD0 25-177)

B1: M_3: murine-derived IL-19 antibody; LC SEQ ID NO: 18, HC SEQ ID NO: 22 (antibody)
heavy: QIQLVQSGPELKKPGETVKISCKASGYTFTTYGMSWVKQAPGKGLKWMVWINTYSGVPTYVDDFKGRFAFSLETSASTAYLQINNLKNEDTATYFCARRDEGFAYWGQGTLVTVSAAKTTPPSVYPLAPGSAAQTNSMVTLGCLVKGYFPEPVTVTWNSGSLSSGVHTFPAVLQSDLYTLSSSVTVPSSTWPSETVTCNVAHPASSTKVDKKIVPRDCGCKPCICTVPEVSSVFIFPPKPKDVLTITLTPKVTCVVVDISKDDPEVQFSWFVDDVEVHTAQTQPREEQFNSTFRSVSELPIMHQDWLNGKEFKCRVNSAAFPAPIEKTISKTKGRPKAPQVYTIPPPKEQMAKDKVSLTCMITDFFPEDITVEWQWNGQPAENYKNTQPIMDTDGSYFVYSKLNVQKSNWEAGNTFTCSVLHEGLHNHHTEKSLSHSPGK
light: DIKMTQSPSSMYASLGERVTITCKASQDINSYLSWFQQKPGKSPKTLIYRANRLVDGVPSRFSGSGSGQDYSLTISSLEYEDMGIYFCLQYDDFPYTFGGGTKLEIKRADAAPTVSIFPPSSEQLTSGGASVVCFLNNFYPKDINVKWKIDGSERQNGVLNSWTDQDSKDSTYSMSSTLTLTKDEYERHNSYTCEATHKTSTSPIVKSFNRNEC
B2: R_4: rabbit-derived IL-19 antibody; LCVR SEQ ID NO: 58, HCVR SEQ ID NO: 62 (antibody, V domains shown)
VH: QCQSVEESGGRLVTPGTPLTLTCTVSGIDLSIYAMGWVRQAPGKGLEYIGIIDTTGTAYYARWAKGRFTISKTSATVALKITSPTTEDTATYFCARDSGSLYYGSYALWGPGTLVTVSS
VL: ADVVMTQTPSSVSEPVGGTVTIKCQASQSIYSYLSWYQQKPGQPPKLLIYEASKLASGVPSRFKGSGSGTQFTLTISGVECADAATYYCQQGYSSSNVDNTFGGGTEVVVT
B3: R_1: rabbit-derived IL-19 antibody; LCVR SEQ ID NO: 34, HCVR SEQ ID NO: 38 (antibody, V domains shown)
VH: QQLEESGGGLVQPEGSLTLTCTASGFSFSSSYWICWVRQAPGKGLEWLACIDTGVSGDTYYANWAEGRFTISKTSSTTVTLQMTSLTAADTATYFCARDIFGSAIDNSLWGPGTLVTVSS
VL: AIDMTQTPASVSEPVGGTVTIKCQASQSISSYLAWYQQKPGQPPKLLIYSASTLASGVPSRFRGSGSGREFTLTISDLECADAATYYCQCHYHGSSYWDNSFGGGTEVVVK
B4: R_2: rabbit-derived IL-19 antibody; LCVR SEQ ID NO: 42, HCVR SEQ ID NO: 46 (antibody, V domains shown)
VH: B3 VH with E66K
VL: ADVVMTQTPASVEAAVGGTVTIKCQASESIGNALAWYQQKPGQPPKLLIYDASKLASGVPSRFKGSGSGTQFTLTISDLECADAATYYCQCHYHGSSYWDNSFGGGTEVVVK
B5: M_5: murine-derived IL-19 antibody; LC SEQ ID NO: 312, HC SEQ ID NO: 313 (antibody)
heavy: EVQLQQSGPVLVKPGASVKMSCKASGYPFNDYFLGWVKQSHGKSLEWIGSINPDNDYTMSNQKFKGKATLTVDKSSSTAYMELNSLTSEDSAVYYCARYDYDWAWFAHWGQGTLVTVSAAKTTPPSVYPLAPGSAAQTNSMVTLGCLVKGYFPEPVTVTWNSGSLSSGVHTFPAVLQSDLYTLSSSVTVPSSTWPSETVTCNVAHPASSTKVDKKIVPRDCGCKPCICTVPEVSSVFIFPPKPKDVLTITLTPKVTCVVVDISKDDPEVQFSWFVDDVEVHTAQTQPREEQFNSTFRSVSELPIMHQDWLNGKEFKCRVNSAAFPAPIEKTISKTKGRPKAPQVYTIPPPKEQMAKDKVSLTCMITDFFPEDITVEWQWNGQPAENYKNTQPIMDTDGSYFVYSKLNVQKSNWEAGNTFTCSVLHEGLHNHHTEKSLSHSPGK
light: DIVMTQSPSSLAMSVGQKVTMSCKSSQSLLSSYNQKNYLAWYQRKPGQSPKLLVYFASQRATGVPDRFIGSGSGSDFTLTISSVQAEDLADYFCQQHTRLPITFGAGTKLELKRADAAPTVSIFPPSSEQLTSGGASVVCFLNNFYPKDINVKWKIDGSERQNGVLNSWTDQDSKDSTYSMSSTLTLTKDEYERHNSYTCEATHKTSTSPIVKSFNRNEC
B6: M_1: murine-derived IL-19 antibody; LC SEQ ID NO: 2, HC SEQ ID NO: 6 (antibody)
heavy: EVQLQQSGPVLVKPGASVKMSCKASGYKFTDYFVGWVKQSHGKSLEWIGYVDPENGYTRCNQKFKGKATLTVDKSSSTAYMELNSLTSEDSAVYYCARYDYDWAWFTNWGQGTLVTVSAAKTTPPSVYPLAPGSAAQTNSMVTLGCLVKGYFPEPVTVTWNSGSLSSGVHTFPAVLQSDLYTLSSSVTVPSSTWPSETVTCNVAHPASSTKVDKKIVPRDCGCKPCICTVPEVSSVFIFPPKPKDVLTITLTPKVTCVVVDISKDDPEVQFSWFVDDVEVHTAQTQPREEQFNSTFRSVSELPIMHQDWLNGKEFKCRVNSAAFPAPIEKTISKTKGRPKAPQVYTIPPPKEQMAKDKVSLTCMITDFFPEDITVEWQWNGQPAENYKNTQPIMDTDGSYFVYSKLNVQKSNWEAGNTFTCSVLHEGLHNHHTEKSLSHSPGK
light: B5 light with R44Q, Q59T, A61P, T62P, T98E
B7: R_3: rabbit-derived IL-19 antibody; LCVR SEQ ID NO: 50, HCVR SEQ ID NO: 54 (antibody, V domains shown)
VH: QCQSLEESGGGLVEPEGSLTLTCKASGFSFSSSYWICWVRQAPGKGLEWIACTDTFSGDTYYASWAKGRFTISKTSSTTVTLRMTSLTDADTATYFCARDIFGTAVHISLWGPGTLVTVSS
VL: B4 VL with A10S, E28Q, N32S, A33S, P44R, D51G, K54T, Q71E

Assays:
[1] = target: T1, human IL-19 / human IL-20R beta Fc-fusion protein; assay: BLI in vitro neutralization: IL-19 captured by antibody, then incubated with IL-20R beta Fc; details: block of IL-19 binding to soluble receptor
Excerpt: Alternatively, a biophysical assay such as bio-layer interferometry (BLI) may be used for assessing neutralization of IL-19 by antibodies of the present invention. Binding between a ligand immobilized on the biosensor tip surface and an analyte in solution produces an increase in optical thickness at the biosensor tip, which results in a wavelength shift (expressed in nm). According to such assay, the IL-19 receptor (i.e., […]) is expressed in a membrane-free manner (such as with an Fc-fusion e.g. IL20Rbeta Fc chimera protein from R&D Systems catalog 1788-IR-050). […] The immobilized antibodies are then incubated with recombinant human IL-19 protein diluted to 100 nM using HBS-EP+ running buffer (GE Healthcare, 10 mM Hepes pH7.4+150 mM NaCl+3 mM EDTA+0.05% surfactant P20) for 240-300 secs. The human IL-19, after binding to the anti-IL-19 antibody, is assessed by incubation with human IL-20R beta Fc-fusion protein for 240-300 secs. The ability of the antibody to block or neutralize binding of the IL-19 ligand to the soluble receptor is observed as a minimal (<0.025 nm) increase in the wavelength during this step of the assay.

recombinant human IL-19 [2] = target: T2, recombinant human IL-19; assay: Bio-layer interferometry (BLI) binding kinetics and affinity (Octet Red96); details: 25° C.; 1:1 binding model
Method: Bio-layer interferometry (BLI) assay, measured with a Octet Red96® instrument available from ForteBio (using HBS-EP+ running buffer (GE Healthcare, 10 mM Hepes pH7.4+150 mM NaCl+3 mM EDTA+0.05% surfactant P20) at 25° C.), is used to measure binding of the exemplified IL-19 antibodies of the present invention to recombinant human IL-19 (having the amino acid sequence set for in SEQ ID NO: 1).
Except as noted, all reagents and materials are from ForteBio (Freemont, Calif.). An AMQ biosensor is used to immobilize antibody of interest for analysis. […] Recombinant human IL-19 is prepared to concentrations of 270, 90, 30, 10, 3.33, 1.11, 0.370, and 0 (blank) nM by dilution into running buffer. Each analysis consists of: (1) capturing antibody samples on biosensors for 300 secs; (2) establishing a baseline by incubating antibody loaded biosensors with running buffer for 60 secs; (3) incubating antibody loaded biosensors with serially diluted recombinant human IL-19 for 300 secs to monitor association phase; (4) return of biosensor to running buffer to monitor dissociation phase.
Binding data is processed using standard double-referencing and fit to a 1:1 binding model using Data Analysis v9.0 evaluation software, to determine the association rate (kon, M^−1 s^−1 units), dissociation rate (koff, s^−1 units), and Rmax (nm units). The equilibrium dissociation constant (KD) was calculated from the relationship KD=koff/kon, and is in molar units.

recombinant human IL-19 [3] = target: T2, recombinant human IL-19; assay: Binning by cross-competition binding assay (Octet Red96)
Excerpt: Binning experiments involve competing monoclonal antibodies against one another in a pairwise and combinatorial fashion for binding to a specific antigen. A “bin” is a relative concept, based upon the epitope regions represented within the panel of monoclonal antibodies being tested. Two antibodies belong to the same bin if they cannot pair with one another and share the same blocking profile when tested against the other antibodies (or bins of antibodies) in the test panel. Binning of exemplified antibodies of the present invention may be performed by cross-competition binding assays using the Octet Red96®, available from ForteBio, according to manufacturer instruction. Briefly, to determine if two antibodies share overlapping epitope regions, an exemplified antibody is labeled with biotin and captured onto streptavidin sensor tip. The coated biosensor up is then incubated with recombinant human IL-19 to saturate the capture antibody binding sites. The capture antibody-antigen complex is then incubated with a detection antibody. […] Antibodies with a same binding profile are grouped together into the same bin.

recombinant human IL-19 [4] = target: T2, recombinant human IL-19; assay: PathHunter eXpress IL20RA/IL20RB dimerization assay (cell-based neutralization); parameters: host or cells: PathHunter eXpress IL20RA/IL20RB cells (DiscoverX 93-1027E3) carry the receptor partners; details: eight experiments
Excerpt: PathHunter® eXpress IL20RA/IL20RB dimerization assay (DiscoverX product code 93-1027E3) is used to assess ability of exemplified antibodies to prevent binding of human IL-19 recombinant protein in a cell-based assay format. The assay detects ligand induced dimerization of two subunits of a receptor-dimer pair. The cells have been engineered to co-express one receptor subunit fused to enzyme donor and a second dimer partner fused to enzyme acceptor. Binding of an agonist to one receptor subunit induces it to interact with its dimer partner, forcing complementation of the two enzyme fragments resulting in the formation of a functional enzyme that hydrolizes a substrate to generate a chemiluminescent signal. […] Human IL-19 recombinant protein with and without exemplified antibodies mixture is then incubated with cells overnight at 37° C./5% CO2. Substrate buffer is added to cells and incubated at room temperature for 1 hour in the dark before luminescent detection.

Molecule | Neutralization [1] | kon (recombinant human IL-19 [2]) [M⁻¹ s⁻¹] | Binning Group (recombinant human IL-19 [3]) | % inhibition +/− SEM (maximum signal inhibition percentage) (recombinant human IL-19 [4])
B1 | No |  |  | 
B2 |  | 152000 | 4 | 
B3 |  | 33300 | 3 | 
B4 |  | 428000 | 3 | 
B5 | Yes (minimal (<0.025 nm) increase in the wavelength) |  |  | 105.03 +/− 1.38%
B6 | Yes (minimal (<0.025 nm) increase in the wavelength) |  |  | 98.59 +/− 0.42%
B7 |  | 391000 | 3 | 
